# Measurements published in patent publication US20190233512A1 (SUTRO BIOPHARMA, published 2019).
# Where a chain is given by its changes, count along the chain named.
# B1: SRP1848-B07 (antibody, V domains shown)
# VH: EVQLVESGGGLVQPGGSLRLSCAASGFNISRFYIHWVRQAPGKGLEWVGGISPYDGFTDYADSVKGRFTISADTSKNTAYLQMNSLRAEDTAVYYCARGSWSWPAGYGYYQDYWGQGTLVTVSS
# VL: not shown
# notes: VH/VL only; Fc-bearing IgG format with trastuzumab LC, HIS/FLAG-tagged, cell-free expressed; constant regions not tied; also called Antibody 14
# B2: SRP1848-C05 (antibody, V domains shown)
# VH: EVQLVESGGGLVQPGGSLRLSCAASGFNIRKYSIHWVRQAPGKGLEWVGDIFPIDGINDYADSVKGRFTISADTSKNTAYLQMNSLRAEDTAVYYCARGSWSWKAGYGYYLDYWGQGTLVTVSS
# VL: not shown
# notes: VH/VL only; Fc-bearing IgG format with trastuzumab LC, HIS/FLAG-tagged, cell-free expressed; constant regions not tied; also called Antibody 21
# B3: SRP1848-D07 (antibody, V domains shown)
# VH: B1 VH with R31K, F32Y, Y54N, F57Y, T69A, S100F, S102A, P104R, A105S, Q111L
# VL: not shown
# notes: VH/VL only; Fc-bearing IgG format with trastuzumab LC, HIS/FLAG-tagged, cell-free expressed; constant regions not tied; also called Antibody 28
# B4: SRP1848-E02 (antibody, V domains shown)
# VH: B2 VH with R30G, D50E, F52Y, I54N, I57N, N58T, K104R, A105S
# VL: not shown
# notes: VH/VL only; Fc-bearing IgG format with trastuzumab LC, HIS/FLAG-tagged, cell-free expressed; constant regions not tied; also called Antibody 32
# B5: SRP1848-D05 (antibody, V domains shown)
# VH: B1 VH with R31I, F32S, Y54I, F57Y, P104R, Q111L
# VL: not shown
# notes: VH/VL only; Fc-bearing IgG format with trastuzumab LC, HIS/FLAG-tagged, cell-free expressed; constant regions not tied; also called Antibody 27
# B6: SRP1848-A09 (antibody, V domains shown)
# VH: EVQLVESGGGLVQPGGSLRLSCAASGFNIRKQSIHWVRQAPGKGLEWVGSIFPNDGTTDYADSVKGRFTISADTSKNTAYLQVNSLRAEDTAVYYCARGSWFWRSGYGYFLEYWGQGTLVTVSS
# VL: not shown
# notes: VH/VL only; Fc-bearing IgG format with trastuzumab LC, HIS/FLAG-tagged, cell-free expressed; constant regions not tied; also called Antibody 7
# B7: SRP1848-B09 (antibody, V domains shown)
# VH: EVQLVESGGGLVQPGGSLRLSCAAGGFNITNYYIHWVRQAPGKGLEWVGGITPVDGYTDYADRVKGRFTISADTSKNTAYLQMNSLRAEDTAVYYCARGAWSWRSGYGYYMDYWGQGTLVTVSS
# VL: not shown
# notes: VH/VL only; Fc-bearing IgG format with trastuzumab LC, HIS/FLAG-tagged, cell-free expressed; constant regions not tied; also called Antibody 15
# B8: SRP1848-E05 (antibody, V domains shown)
# VH: B7 VH with L20V, G25S, T30G, N31V, V54N, R63S, A100F, S102A, M111L
# VL: not shown
# notes: VH/VL only; Fc-bearing IgG format with trastuzumab LC, HIS/FLAG-tagged, cell-free expressed; constant regions not tied; also called Antibody 34
# B9: SRP1848-B10 (antibody, V domains shown)
# VH: EVQLVESGGGLVQPGGSLRLSCAASGFNTTTKSIHWVRQAPGKGLEWVGEIYPRDGITDYADSVKGRFTISADTSKNTAYLQMNSLRAEDTAVYYCARGGWHWRSGYSYYLDYWGQGTLVTVSS
# VL: not shown
# notes: VH/VL only; Fc-bearing IgG format with trastuzumab LC, HIS/FLAG-tagged, cell-free expressed; constant regions not tied; also called Antibody 16
# B10: SRP1848-A10 (antibody, V domains shown)
# VH: B2 VH with V37A, G56D, N58T, K104P, A105S, Y107H, G108S
# VL: not shown
# notes: VH/VL only; Fc-bearing IgG format with trastuzumab LC, HIS/FLAG-tagged, cell-free expressed; constant regions not tied; also called Antibody 8
# B11: SRP1848-B03 (antibody, V domains shown)
# VH: B1 VH with R31M, F32K, S52T, Y54I, F57M, A105S, G108S, Q111L
# VL: not shown
# notes: VH/VL only; Fc-bearing IgG format with trastuzumab LC, HIS/FLAG-tagged, cell-free expressed; constant regions not tied; also called Antibody 10
# B12: SRP1848-C04 (antibody, V domains shown)
# VH: B2 VH with K31H, D50E, F52Y, I54G, D55P, I57N, N58T, W101L, K104R
# VL: not shown
# notes: VH/VL only; Fc-bearing IgG format with trastuzumab LC, HIS/FLAG-tagged, cell-free expressed; constant regions not tied; also called Antibody 20
# B13: SRP1848-F06 (antibody, V domains shown)
# VH: B1 VH with R31L, F32S, Y54I, F57N, S100F, S102A, P104R, A105S, Q111L
# VL: not shown
# notes: VH/VL only; Fc-bearing IgG format with trastuzumab LC, HIS/FLAG-tagged, cell-free expressed; constant regions not tied; also called Antibody 41
# B14: SRP1848-E01 (antibody, V domains shown)
# VH: B1 VH with S30T, R31N, F32K, S52T, Y54F
# VL: not shown
# notes: VH/VL only; Fc-bearing IgG format with trastuzumab LC, HIS/FLAG-tagged, cell-free expressed; constant regions not tied; also called Antibody 31
# B15: SRP1848-C03 (antibody, V domains shown)
# VH: B9 VH with T29I, T30G, T31V, K32Y, R54I, I57N, G100S, H102A
# VL: not shown
# notes: VH/VL only; Fc-bearing IgG format with trastuzumab LC, HIS/FLAG-tagged, cell-free expressed; constant regions not tied; also called Antibody 19
# B16: SRP1848-A06 (antibody, V domains shown)
# VH: B7 VH with G25S, T30G, Y32S, V54I, Y57N, R63S, M111I
# VL: not shown
# notes: VH/VL only; Fc-bearing IgG format with trastuzumab LC, HIS/FLAG-tagged, cell-free expressed; constant regions not tied; also called Antibody 4
# B17: SRP1848-A08 (antibody, V domains shown)
# VH: B6 VH with F27S, Q32H, F52Y, V83M, S105A, F110Y, E112D
# VL: not shown
# notes: VH/VL only; Fc-bearing IgG format with trastuzumab LC, HIS/FLAG-tagged, cell-free expressed; constant regions not tied; also called Antibody 6
# Molecular target: T1, Human folate receptor alpha (hFOLR1) (human, UniProt P15328 25-234)
# T1 construct: Stably expressed on CHO cells (CHO-hFOLR1) for flow cytometry; endogenous on FOLR1-positive KB and Igrov1 cells in the killing assay; also called human FOLR1; FolRα
# Test: FACS, CHO-hFOLR1 cells
# Protocol: CHO cells were transfected to stably express human (CHO-hFOLR1), cynomolgus (CHO-cFOLR1), or mouse (CHO-mFOLR1) target molecule FOLR1 on the cell surface. Parental CHO cells were used as a negative control to determine background binding levels. Parental CHO and stably transfected CHO-hFOLR1, CHO-cFOLR1, and CHO-mFOLR1 cells were cultured in Ham's F-12: high glucose DMEM (50:50) (Corning, Cellgro-Mediatech) supplemented with 10% heat-inactivated fetal bovine serum (Corning, Cellgro-Mediatech), 1% Penicillin/Streptomycin (Corning, Cellgro-Mediatech) and 2 mmol/L-glutamax (Life Technology).
# A mixture of fluoresecent-labeled parental CHO cells and unlabeled CHO-hFOLRlcells were prepared as follows. Parental CHO cells were washed twice in PBS and incubated in PBS containing with 1 nM CellTrace™ Oregon Green488® (Life Technologies) at 37° C. for 30 minutes. Labeled parental CHO cells were then washed 2× with Ham's F-12 media and 2× with FACS buffer (PBS with 1% bovine serum albumin). Unlabeled CHO-hFOLR1 cells were similarly washed and prepared. Labeled parental CHO and unlabeled CHO-hFOLR1 cells were combined at 1:1 ratio and seeded at 50 μL per well (200,000 cells per well) in 96 well polypropylene plates. Cells were mixed with 50 μL of test antibodies (i.e., anti-FOLR1 variants) serially diluted in FACS buffer and incubated on ice for 60 mins. Cells were washed with FACS buffer and incubated on ice for 60 mins with 100 μL FACS buffer containing 2.5 μg/mL R-Phycoerythrin-conjugated goat anti-Human IgG (Jackson ImmunoResearch Laboratories, West Grove, Pa.). Cells were washed twice with FACS buffer, fixed in 2% paraformaldehyde in PBS (Santa Cruz Biotechnology; Dallas, Tex.) for 10 mins on ice in the dark, and analyzed using the BD LSR II Flow Cytometer (BD Biosciences; San Jose, Calif.). Data were analyzed using FlowJo® software (FlowJo, LLC; Ashland, Oreg.) to determine mean fluorescence intensities. Binding constants were calculated using the statistical software, GraphPad Prism (GraphPad Software; La Jolla, Calif.) using the nonlinear regression equation, one site-specific binding with Hill slope. Secondary antibody alone was used as a control, in addition to measuring non-specific antibody binding to CHO parental cells.
# T1 sequence (P15328 25-234 limits assumed): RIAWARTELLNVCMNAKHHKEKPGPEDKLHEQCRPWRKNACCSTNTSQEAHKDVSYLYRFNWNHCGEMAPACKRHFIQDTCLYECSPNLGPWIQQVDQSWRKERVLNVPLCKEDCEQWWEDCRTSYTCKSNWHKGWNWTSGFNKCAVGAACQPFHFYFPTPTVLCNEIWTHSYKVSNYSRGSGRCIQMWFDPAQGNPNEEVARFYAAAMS
row,Binder,Bmax [MFI]
1,B1,25600
2,B2,26800
3,B3,25700
4,B4,23800
5,B5,26700
6,B6,28900
7,B7,25200
8,B8,27300
9,B9,28200
10,B10,27100
11,B11,26300
12,B12,26300
13,B13,25600
14,B14,26400
15,B15,29100
16,B16,24500
17,B17,28600

# Molecular target: T2, Murine folate receptor alpha (mouse, UniProt P35846 25-232)
# T2 construct: Stably expressed on CHO cells (CHO-mFOLR1); also called mouse FOLR1; CHO-mFOLR1
# Test: FACS, CHO-mFOLR1 cells
# T2 sequence (P35846 25-232 limits assumed): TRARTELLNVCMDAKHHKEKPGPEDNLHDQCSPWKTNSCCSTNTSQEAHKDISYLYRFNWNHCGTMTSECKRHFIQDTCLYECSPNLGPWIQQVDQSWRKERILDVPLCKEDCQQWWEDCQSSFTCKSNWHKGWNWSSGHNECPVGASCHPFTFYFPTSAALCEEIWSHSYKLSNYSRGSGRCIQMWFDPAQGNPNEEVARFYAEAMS
row,Binder,Bmax [MFI]
1,B2,4130
2,B4,1470
3,B5,1360
4,B6,7990
5,B7,1420
6,B9,2460
7,B10,10200
8,B11,2720
9,B12,2510
10,B15,3310
11,B16,2770
12,B17,3200

# Molecular target: T3, Cynomolgus folate receptor alpha (cynomolgus monkey, UniProt P15328 25-234 (human entry))
# T3 construct: Stably expressed on CHO cells (CHO-cFOLR1); also called cynomolgus FOLR1; CHO-cFOLR1
# Test: FACS, CHO-cFOLR1 cells
# T3 sequence (P15328 other isoform, or with tags, fused parts or gaps limits assumed): as the sequence (P15328 25-234 limits assumed) above, with I2T, W4R, R37K, Q117R, A146P, H171Y counted along it
row,Binder,Bmax [MFI]
1,B1,25500
2,B2,15200
3,B3,24300
4,B4,18700
5,B5,22200
6,B6,20200
7,B7,25200
8,B8,28200
9,B9,21300
10,B10,14800
11,B11,17200
12,B12,22000
13,B13,26500
14,B14,22400
15,B15,25100
16,B16,20200
17,B17,26200
